Experiments:
[1] = target: full-length human basigin (human); experiment: MST; Alexa Fluor 488-labelled full-length basigin held at 0.1 µM; PfRH5 or PfRCR titrated 2 µM to 0.12 nM; 20 mM Tris pH 8.0, 200 mM NaCl, 1 mg/ml salmon sperm DNA, 0.02% DDM; 25 °C
[2] = target: basigin ectodomain (human); experiment: MST; Alexa Fluor 488-labelled BSG^ecto held at 0.25 µM; PfRH5 or PfRCR titrated 8 µM to 3.91 nM; 20 mM Tris pH 8.0, 200 mM NaCl, 1 mg/ml salmon sperm DNA, 0.01% Tween-20; 25 °C

PfRH5 (natural protein) gave a Kd [1] of 120 nM and a Kd [2] of 190 nM.

— PMC10794152
